Results from article PMC9163516, “Convergent evolution of a parasite-encoded complement control protein-scaffold to mimic binding of mammalian TGF-β to its receptors, TβRI and TβRII” (The Journal of Biological Chemistry, 2022).

B1: TGM-D2 (domain or fragment)
chain: RCSPLPTNDTVSFEYLKATVNPGIIFNITVHPDASGKYPELTYIKRICKNFPTDSNVQGHIIGMCYNAEWQFSSTPTCPAS
modifications: refolded from E. coli, disulfide-bonded; limits set between D1 (ends at 95) and D3 (starts at about 177); vector residues left after thrombin cleavage omitted
B2: TβRI ectodomain (receptor)
chain: LQCFCHLCTKDNFTCVTDGLCFVSVTETTDKVIHNSMCIAEIDLIPRDRPFVCAPSSKTGSVTTTYCCNQDHCNKIELPTTVKSSPGLGPVEL
notes: also called TGF-β type I receptor

Key:
Settings in all cases: both partners purified
TβRI ectodomain = biological target: B2; assay: ITC; TGM construct titrated into TβRI in the cell; 25 mM Hepes, 50 mM NaCl, 0.05% NaN3, pH 7.5, 25 °C; 1:1 model
TGM-D2 = biological target: B1; assay: NMR titration; 1H-15N HSQC of 15N TGM-D2 or 15N TGM-D3 with 0 to 1.4 equivalents of unlabeled TβRI; 25 mM sodium phosphate, 50 mM NaCl, pH 7.0, 310 K (legend of Figure 3)
TβRII E142Q = biological target: T1, TβRII E142Q (UniProt P37173 23-166, E142Q); assay: SPR; biotinylated avi-tagged TGM-D3 captured (50-150 RU) on a neutravidin-coated CM-5 chip, TβRII and its variants injected; 25 mM Hepes, pH 7.4, 150 mM NaCl, 0.05% surfactant P20, 100 µl/min; 1:1 kinetic fit of duplicate or triplicate injection series
T1 construct: also called Glu142Gln

TβRII I76A = biological target: T2, TβRII I76A (UniProt P37173 23-166, I76A); assay: as above
T2 construct: also called Ile76Ala

TβRII S75L = biological target: T3, TβRII S75L (UniProt P37173 23-166, S75L); assay: as above
T3 construct: also called Ser75Leu

TβRII D55N = biological target: T4, TβRII D55N (UniProt P37173 23-166, D55N); assay: as above
T4 construct: also called Asp55Asn

TβRII ectodomain [1] = biological target: T5, TβRII ectodomain (UniProt P37173 23-166); assay: as above
T5 construct: also called WT TβRII; TGF-β type II receptor

TβRII I73A = biological target: T6, TβRII I73A (UniProt P37173 23-166, I73A); assay: as above
T6 construct: also called Ile73Ala

TβRII ectodomain [2] = biological target: T5, TβRII ectodomain; assay: ITC; TGM construct in the syringe (300-320 µM), 15 µM TβRII in the cell; 25 mM sodium phosphate, 50 mM NaCl, pH 6.0, 35 °C; 1:1 model (Nitpic, Sedphat)
[3] = biological target: T7, biotinylated avi-tagged TβRII (UniProt P37173 23-166, a single biotin on the avi tag (BirA)); assay: SPR; biotinylated avi-tagged TβRII captured (50-150 RU) on a neutravidin-coated CM-5 chip, TGM-D3 and its variants injected; 25 mM Hepes, pH 7.4, 150 mM NaCl, 0.05% surfactant P20, 100 µl/min; 1:1 kinetic fit of duplicate or triplicate injection series
T7 construct: also called TβRII (SPR surface)
T7 sequence (P37173 23-166): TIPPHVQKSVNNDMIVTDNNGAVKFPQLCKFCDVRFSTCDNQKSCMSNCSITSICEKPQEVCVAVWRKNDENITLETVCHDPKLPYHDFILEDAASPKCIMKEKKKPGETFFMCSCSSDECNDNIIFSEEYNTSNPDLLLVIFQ

T5 sequence (P37173 23-166): as above
T1 sequence (P37173 23-166 E142Q): as the sequence (P37173 23-166) above, with E120Q counted along it
T6 sequence (P37173 23-166 I73A): as the sequence (P37173 23-166) above, with I51A counted along it
T4 sequence (P37173 23-166 D55N): as the sequence (P37173 23-166) above, with D33N counted along it
T3 sequence (P37173 23-166 S75L): as the sequence (P37173 23-166) above, with S53L counted along it
T2 sequence (P37173 23-166 I76A): as the sequence (P37173 23-166) above, with I54A counted along it

Row | Binder | Kd [3] [µM] | koff [3] [s⁻¹] | kon [3] [M⁻¹ s⁻¹] | other results
1 | TGM-D12 (domain or fragment, refolded from E. coli, disulfide-bonded; start from the listed D1 range (16-95), end set just before D3 (Cys178 is the first D3 cysteine; 7SXB places D3 at about 177-262); vector residues left after …) DDSGCMPFSDEAATYKYVAKGPKNIEIPAQIDNSGMYPDYTHVKRFCKGLHGEDTTGWFVGICLASQWYYYEGVQECDDRRCSPLPTNDTVSFEYLKATVNPGIIFNITVHPDASGKYPELTYIKRICKNFPTDSNVQGHIIGMCYNAEWQFSSTPTCPAS |  |  |  | Kd (TβRI ectodomain): 0.025 µM; dH (TβRI ectodomain): -19 kcal/mol; stoichiometry N (TβRI ectodomain): ~1
2 | B1 |  |  |  | fold increase of KD against TGM-FL (TβRI ectodomain): ~50 fold; stoichiometry N (TβRI ectodomain): ~0.5
3 | B2 |  |  |  | stoichiometry N (TGM-D2): 1
4 | biotinylated avi-tagged TGM-D3 (domain or fragment, a single biotin on the avi tag (BirA), also called TGM-D3 (SPR surface); not shown: Thioredoxin, N-terminal, cleaved; His6, N-terminal, cleaved) GSGTGCPPLPDDGIVFYEYYGYAGDRHTVGPVVTKDSSGNYPSPTHARRRCRALSQEADPGEFVAICYKSGTTGESHWEYYKNIGKCPDP |  |  |  | Kd (TβRII E142Q): 17 ± 1 µM; koff (TβRII E142Q): 10 ± 10 s⁻¹; kon (TβRII E142Q): 410000 M⁻¹ s⁻¹; Kd (TβRII I76A): 26 ± 1 µM; koff (TβRII I76A): 1.2 ± 0.1 s⁻¹; kon (TβRII I76A): 47000 M⁻¹ s⁻¹; Kd (TβRII S75L): 310 ± 30 µM; koff (TβRII S75L): 3.9 ± 0.9 s⁻¹; kon (TβRII S75L): 13000 M⁻¹ s⁻¹; Kd (TβRII D55N): 63 ± 1 µM; koff (TβRII D55N): 3.1 ± 0.1 s⁻¹; kon (TβRII D55N): 50000 M⁻¹ s⁻¹; Kd (TβRII ectodomain [1]): 1.6 ± 0.1 µM; koff (TβRII ectodomain [1]): 0.7 ± 0.1 s⁻¹; kon (TβRII ectodomain [1]): 410000 M⁻¹ s⁻¹; Kd (TβRII I73A): 6.9 ± 0.1 µM; koff (TβRII I73A): 1.1 ± 0.1 s⁻¹; kon (TβRII I73A): 160000 M⁻¹ s⁻¹
5 | TGM-D3 (domain or fragment, also called WT TGM-D3; domain 3 of H. polygyrus TGF-β mimic; not shown: Thioredoxin, N-terminal, cleaved; His6, N-terminal, cleaved) GSGTGCPPLPDDGIVFYEYYGYAGDRHTVGPVVTKDSSGNYPSPTHARRRCRALSQEADPGEFVAICYKSGTTGESHWEYYKNIGKCPDP | 1.6 ± 0.1 | 0.26 ± 0.01 | 160000 | Kd (TβRII ectodomain [2]): 1.2 µM; stoichiometry N (TβRII ectodomain [2]): 1.1
6 | TGM-D3 H199A (domain or fragment, also called His199Ala; not shown: Thioredoxin, N-terminal, cleaved; His6, N-terminal, cleaved) GSGTGCPPLPDDGIVFYEYYGYAGDRATVGPVVTKDSSGNYPSPTHARRRCRALSQEADPGEFVAICYKSGTTGESHWEYYKNIGKCPDP | 3 ± 0.1 | 0.98 ± 0.01 | 330000 | 
7 | TGM-D3 K258A (domain or fragment, also called Lys258Ala; not shown: Thioredoxin, N-terminal, cleaved; His6, N-terminal, cleaved) GSGTGCPPLPDDGIVFYEYYGYAGDRHTVGPVVTKDSSGNYPSPTHARRRCRALSQEADPGEFVAICYKSGTTGESHWEYYKNIGACPDP | 2.7 ± 0.1 | 1.2 ± 0.1 | 430000 | 
8 | TGM-D3 I238A (domain or fragment, not shown: Thioredoxin, N-terminal, cleaved; His6, N-terminal, cleaved) GSGTGCPPLPDDGIVFYEYYGYAGDRHTVGPVVTKDSSGNYPSPTHARRRCRALSQEADPGEFVAACYKSGTTGESHWEYYKNIGKCPDP | 25 ± 1 | 2.3 ± 0.1 | 94000 | 
9 | TGM-D3 Y252A (domain or fragment, not shown: Thioredoxin, N-terminal, cleaved; His6, N-terminal, cleaved) GSGTGCPPLPDDGIVFYEYYGYAGDRHTVGPVVTKDSSGNYPSPTHARRRCRALSQEADPGEFVAICYKSGTTGESHWEAYKNIGKCPDP | 21 ± 1 | 1.7 ± 0.1 | 78000 | 
10 | TGM-D3 K254A (domain or fragment, also called Lys254Ala; not shown: Thioredoxin, N-terminal, cleaved; His6, N-terminal, cleaved) GSGTGCPPLPDDGIVFYEYYGYAGDRHTVGPVVTKDSSGNYPSPTHARRRCRALSQEADPGEFVAICYKSGTTGESHWEYYANIGKCPDP | 35 ± 1 | 12 ± 6 | 300000 | 
11 | TGM-D3 I256A (domain or fragment, also called Ile256Ala; not shown: Thioredoxin, N-terminal, cleaved; His6, N-terminal, cleaved) GSGTGCPPLPDDGIVFYEYYGYAGDRHTVGPVVTKDSSGNYPSPTHARRRCRALSQEADPGEFVAICYKSGTTGESHWEYYKNAGKCPDP | 1.6 ± 0.1 | 1.4 ± 0.1 | 880000 | 
12 | TGM-D3 N255A (domain or fragment, also called Asn255Ala; not shown: Thioredoxin, N-terminal, cleaved; His6, N-terminal, cleaved) GSGTGCPPLPDDGIVFYEYYGYAGDRHTVGPVVTKDSSGNYPSPTHARRRCRALSQEADPGEFVAICYKSGTTGESHWEYYKAIGKCPDP | 2.7 ± 0.1 | 1.3 ± 0.1 | 480000 | 
13 | TGM-D3 V236A (domain or fragment, also called Val236Ala; not shown: Thioredoxin, N-terminal, cleaved; His6, N-terminal, cleaved) GSGTGCPPLPDDGIVFYEYYGYAGDRHTVGPVVTKDSSGNYPSPTHARRRCRALSQEADPGEFAAICYKSGTTGESHWEYYKNIGKCPDP | 4.6 ± 0.1 | 1.8 ± 0.1 | 380000 | 
14 | TGM-D3 F235A (domain or fragment, also called Phe235Ala; not shown: Thioredoxin, N-terminal, cleaved; His6, N-terminal, cleaved) GSGTGCPPLPDDGIVFYEYYGYAGDRHTVGPVVTKDSSGNYPSPTHARRRCRALSQEADPGEAVAICYKSGTTGESHWEYYKNIGKCPDP | 4.1 ± 0.1 | 1.8 ± 0.2 | 450000 | 
